Values of other authors, collected in article PMC8495453.

Biological target: Galectin-3 (Homo sapiens) (UniProt P17931)
Sequence (P17931 2-250): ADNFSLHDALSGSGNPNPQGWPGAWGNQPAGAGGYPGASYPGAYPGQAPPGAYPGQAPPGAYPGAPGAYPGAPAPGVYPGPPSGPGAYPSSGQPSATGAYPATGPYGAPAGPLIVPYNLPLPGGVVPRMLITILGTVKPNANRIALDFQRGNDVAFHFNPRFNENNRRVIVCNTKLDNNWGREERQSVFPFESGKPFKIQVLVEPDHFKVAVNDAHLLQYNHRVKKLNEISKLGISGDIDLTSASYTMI

LAMP1 29-382, sequence (P11279 29-382): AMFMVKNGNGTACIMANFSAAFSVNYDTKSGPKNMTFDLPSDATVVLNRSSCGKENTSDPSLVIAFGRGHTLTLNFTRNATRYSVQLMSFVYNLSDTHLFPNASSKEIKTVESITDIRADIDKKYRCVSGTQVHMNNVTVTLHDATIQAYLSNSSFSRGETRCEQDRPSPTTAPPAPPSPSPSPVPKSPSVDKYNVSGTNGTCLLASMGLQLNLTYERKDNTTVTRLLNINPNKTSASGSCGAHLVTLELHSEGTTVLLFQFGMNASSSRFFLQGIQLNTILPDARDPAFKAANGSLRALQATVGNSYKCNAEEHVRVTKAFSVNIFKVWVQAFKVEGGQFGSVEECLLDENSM

Kd: < 25 nM
Substance: LAMP1 29-382 (from UniProt P11279)
